One molecule from patent US11795460B2, “Compositions and methods for TTR gene editing and treating ATTR amyloidosis” (Intellia Therapeutics, Inc., priority 2017, dated 2023) can be followed below.

The subject of this data set is mouse TTR. As to the kind of experiment: Serum mouse TTR ELISA in mice dosed with LNP formulations (Table 28). To be noted: wild type CD-1 mice; 1, 0.3, 0.1, 0.03, or 0.01 mg/kg; FIG. 15B. It is filed as in vivo. As for the experimental part:
Blood was collected and the serum was isolated as indicated. The total mouse TTR serum levels were determined using a Mouse Prealbumin (Transthyretin) ELISA Kit (Aviva Systems Biology, Cat. OKIA00111); rat TTR serum levels were measured using a rat specific ELISA kit (Aviva Systems Biology catalog number OKIA00159); human TTR serum levels were measured using a human specific ELISA kit (Aviva Systems Biology catalog number OKIA00081); each according to manufacture's protocol. Briefly, sera were serial diluted with kit sample diluent to a final dilution of 10,000-fold, or 5,000-fold when measuring human TTR in mouse sera. […] The absorbance of the contents was measured on the Spectramax M5 plate reader with analysis using SoftmaxPro version 7.0 software. Serum TTR levels were quantitated off the standard curve using 4 parameter logistic fit and expressed as ug/mL of serum or percent knockdown relative control (vehicle treated) animals.
In separate experiments using wild type CD-1 mice, an LNP formulation comprising guide G000502, which is cross homologous between mouse and cyno, was tested in a dose response study. […] Liver editing results were determined using primers designed to amplify the region of interest for NGS analysis. […]
(In general: An ELISA detects its analyte on a solid surface through an enzyme-linked reagent.)

Strand notation (5' to 3'): a small letter for the sugar, then the base; units joined by * are phosphorothioate-linked, units joined directly phosphodiester-linked; [ ] holds rarer units or linkages, { } end groups; capitals alone tell only the bases. m = 2'-O-methyl; r = 2'-OH (RNA)

B1: G000502: TTR Cyno specific sgRNA modified sequence, SEQ ID No. 114; guide sequence of CR000689; cross homologous between mouse and cyno (nucleic acid)
guide: mA*mC*mA*rCrArArArUrArCrCrArGrUrCrCrArGrCrGrGrUrUrUrUrArGrAmGmCmUmAmGmAmAmAmUmAmGmCrArArGrUrUrArArArArUrArArGrGrCrUrArGrUrCrCrGrUrUrArUrCrAmAmCmUmUmGmAmAmAmAmAmGmUmGmGmCmAmCmCmGmAmGmUmCmGmGmUmGmCmU*mU*mU*mU
For B1, the “Serum mouse TTR levels, dose response” value is “A dose response for both editing and serum TTR levels was evident”.
